The data set in a line: soluble on expression in E. coli; label from the status in PepcDB or PDB records.
Turning to “MSLLTQIKGEWVLGFADGNHRMLRDASVVYEGERIVHVGTEFDGVADRVIDARGCLVAPGFIDTHVHSGHRALHKLLADGGRPDLFGQPYMDVTIARDGTRIKGYPNYLSREEAAVDPGIALHAAFTVAELLRNGVTTFVELGGHVMVQEALWRECERLGVRGYLGAGYDSGRWAADDQGRLRRVPYPDGGDHLFEEAVAFIKRVQAAGNDLVNGILVPREVENCSVDILRRTVQAAQELGVPMATHAGYNVIEFYETVREHRMTPIELLHSVGMLGPRLNIGHANLISDSPRLNYSGGRDLALMGEHRVSISHCPINIVRRARVLDSWKKYREAGVNLTIGSDTYPRDMVMNMRTASYHGKVMSHDLTAASAAEVFEAATLGGARSLGRTDIGRLEPGARADVIAINVGRQDVLRYGPIWDPIRSLVECGVGDDVELVVTNGQVRMEQGRIVGVDLGALRAEAQQFADNVWRDLQDWDPLRRTAQAMCPPLFCPDCMEGHHHHHH”, the “soluble on expression in E. coli” value is on record as “soluble”.
In the case of “MGSDKIHHHHHHMADFSNQIVTIKKGLDLPIAGEPRQVIELGAKPSQVAVLGEEFVGLKPTMLVEEGDWVQKGQALFEDKKTPGVLFTAPASGQVVAINRGERRILQSVVIRCDDGENRDGQISFEIHQDIAALARSTVQAQLVKSGLWTALRTRPFSRVPALDSTPAGIFVTAIDTNPLAADPRLIIAEQTEAFKAGLLVLSRLTEGKVYLCQDKGEAIVKEALPQLEVRRFDGVHPAGLVGTHIHFTLPVSLERQVWHIGYQDVIAYGKLFQTGELYTDRIVALGGPSVLNPRLLRTQLGAELSPLVSDDIKPGQNRVVSGSVLSGHTAVGVHDFLGRFHNQVSVLSEDAQHHVLSWVRGGSDKFSITRAVTSRLFGATKLFEFTTHQGGSARAMMAFGQLDRVMPLDILPTLLVRDLVVRDTDEAQALGALELDEEDLALCTFVCPGKYDFGKELRACLDVIEREG” it was “not soluble”.
“MELSALTAVSPVDGRYGSKTIALREIFSEYGLLKYRTIVEIRWLQKLAATAEIAEVPAFSAEANQFLDDLAANFSEADALRIKEIERTTNHDVKAVEYFLKEKVADVPELHAVNEFFHFACTSEDINNTSHALMLKEARETVILPEIRNLIDAIKALAVEYRDIPLLSRTHGQPASPSTMGKEMANVAYRMERQYKQIENVEILAKINGAVGNYNAHLSAYPELDWHKFSEEFITESLGVTWNPYTTQIEPHDYIAELFDAVARFNTILIDFDRDVWGYIALGHFKQKTIAGEIGSSTMPHKVNPIDFENSEGNLGLANAVFGHLAQKLPISRWQRDLTDSTVLRNLGVGVGYAIIAYTSTLKGISKLEVNRDALLAELDKNWEVLAEPVQTVMRRYGIEKPYEKLKELTRGKRVDGEAMRNFIDGLELPEHEKARLKEMTPANYIGQAIELTDKL”: the “soluble on expression in E. coli” value was “not soluble”.
Consider “MAQSKESPDEAKQDEIIFNIGDTINDYEIVSKIDEGGFGQVFKVTKDHKTFYAMKLESNFQVGGSAIKLEINVLSQLPKNTVFPELICGGKRPRYHFLVLELLGDNLKALKAQSPNPSVFSDGTWSRIGIQCLYAMKMMHDSGFVHRDIKPSNFAIGYSTASESRSRRVLLFDFGLARKFVKKEKNLAPIVTKKESKISKSKTLPSKGPSTKSKDLKPGRSKPILNRKAEQMKIKKNFNMLIPPKSIDQSQRTAEEKVDDEEFTFRRARPHTDFRGTFQYASPNAHLQLELGRHDDIWSLMYMVAEFFVELPWTSNEEIALEELKNQSSILRLFSDGKNIVSSWIHDRIFSDKNPSRLTPEMRGQLDEIDKNLKSCNYYSSPKYDIVYQFFKDSMTKAKVTWTTPYDWETIGKSSEDFSKKSNGKRAVWENPGAFFKKGRWDALPLPLQSPHISIRKSSSKHPKPSAKGSKKAVQARIQNFSKEDSVEADEAPTPMLKSTKKDGMGGQKGGLKGSIE”, for which the “soluble on expression in E. coli” value is given as “not soluble”.
Under “MEMTMEQEPLNGWPQPYRLLDAQPYWDALQDEKLTYQQCVACRQSVWPAHSRCPHCSSDQLVWQASSGRATVYSFSTVTRGPTPVWASIVPYTVGFVEMDEGYFLFTQIEGPPGSIGVGDKVQVRFVRRGAQILPVFVSADLPA” stands “not soluble”; under “GMTTTQPEAKDRISSLPVPDATQVPEGVRKLWAKAEANIGFVPNVFRAQAVNGEQFLAWWNYFNLLLNKEGYLTNAERELVAVVVSGVNRCLYCAVSHGAALREFLGDPQKADAVAVNWRHADLTEREQALAAYAEKLTRHPAEVTAADLEPLRAVGLDDHQIMELVQVIGMFNLTNRVSSALGFVPNPEYYRQAR”, “soluble”; under “MSLADERDQLKSIQADIAAKERAVRQKQQQRASLLAQLKKQEEAISEATRKLRETQNTLNQLNKQIDEMNASIAKLEQQKAAQERSLAAQLDAAFRQGEHTGIQLILSGEESQRGQRLQAYFGYLNQARQETIAQLKQTREEVAMQRAELEEKQSEQQTLLYEQRAQQAKLTQALSERKKTLAGLESSIQQGQQQLSELRANESRLRNSIARAEAAAKARAEREAREAQAVRDRQKEATRKGTTYKPTESEKSLMSRTGGLGAPRGQAFWPVRGPTLHRYGEQLQGELRWKGMVIGASEGTEVKAIADGRVILADWLQGYGLVVVVEHGKGDMSLYGYNQSALVSVGSQVRAGQPIALVGSSGGQGRPSLYFEIRRQGQAVNPQPWLGREGHHHHHH”, “soluble”.
In the case of “EVVVVGYSTQKKESLTGALQTVKSDKLKDITTPSVENMLNGKVPGVYVAPGSGQPGSGGAVVIRGQATLSGTTAPLWVIDGVIVGSNAGALNPSDIETMTILKDAASTAIYGSQGANGVILVTTKNGK”, the “soluble on expression in E. coli” value is recorded as “not soluble”.
Under “SNAMDKYPFLREAGSSFKDRDVTKMSDLIATWDGQDIKGPALIGVPLSKSSISHSGASFAPGTIRQALKHSSAYSAELGEHVVSELLYDLGDIDIHVTDIVKSHHHIFQTMHALLSDHPDWVPLILGGDNSISYSTIKAIAQTKGTTAVIQFDAHHDVRNTEDGGPTNGTPFRRLLDEEIIEGQHLIQLGIREFSNSQAYEAYAKKHNVNIHTMDMIREKGLIPTIKEILPVVQDKTDFIFISVDMDVLDQSHAPGCPAIGPGGLYTDELLEAVKYIAQQPNVAGIEIVEVDPTLDFRDMTSRAAAHVLLHALKGMKLSPFK” stands “soluble”.
Regarding “MGSDKIHHHHHHMSVISENVKYFRKQLGFTQEQLAQRIGIKRSLLGAYEEGRAEPGLETLTILARLFETTVDALISETLSDPGKRKEAMSKDIEGKKLRVLAITVDKDDKENIQLVPEKAAAGYLNGYADPEYVAELPQFYLPIFSGSGTYRAFEIKGDSMLPLASGSLIIGQYVDNWSSVKDQQTYILVTATEGIVYKRIYNNIKKNETLKLVSDNPAYEPYDIHVENVIEIWESKAYISTDFPKPDMSVEKLTAIVSGLQKQMNKLSND”, the “soluble on expression in E. coli” value is “not soluble”.
With “MGSDKIHHHHHHMEKMTFGLIVGNREFFPDRLVEEGRERVIKVLEGMGYRVVTLSPSDTKLGAVETAKDAKKCAELFKEKAGEIDGIIVTLPNFGDEKGVAQAIRLSGLNVPVLVHAFPDDPEKLDLQNRRDSFCGKISVSNNLKQYGIEFSLTTLHTEDPESEVFKRDIEKFAAVCRIVKGMRNIKVGAIGARPSAFNTVRFSEKILERMSISVETVDLSEILHRVSNLKDDDERVRRKLEEIKKNYRLQIVPEEKILLMAKFGSVIDEWIEENDIKALAIQCWTSLEWNLGITPCTIMSLLNEKGKPAACEVDITGALSMYVLQLASGQPSAIVDWNNNYRDENETILFHCGNFPASIYEEKPEIKYADVIGTTVGKERAYGACAGKIKTSPFTFLRLTTDDNEGKVKAYVGEGQILDENPKTFGSRGVARIEKLQELMKYICENGFEHHVAINLSRVADAVKEALEKYLGIVVHKHNAEV”, the “soluble on expression in E. coli” value is on record as “not soluble”.
Regarding “MSLPRLGIILHGVTGRMGYNQHLVRSILAIRDRGGITLQSGERLEIDPIIVGRNRDKMEQLAKRHDIARWSTDLDAALADPNDQIFFDAGTTLMRAELIGRALDAGKHVYCEKPISDDLRTAVKLARKARASGLKHGVVQDKLFLPGLRKLALLRDSGFFGKILSVRGEFGYWVFEGDWGVPAQRPSWNYRKKDGGGIILDMLCHWRYVLDNLFGEVKAVSCLGATHIPSRIDEQGRAYDCDTDDAAYATFELEGGIVAHINSSWAVRVRRDDLVTFQVDGTHGSAVAGLTKCWTQHRVNTPKPVWNPDQPQTIDFYRTWDEVPDTQAFDNGFKAQWEMFLRHVAEDGPWPHGLEAGAKGVQLAELGLKSWAERRWLDVPELEGHHHHHH”, the “soluble on expression in E. coli” value is given as “not soluble”.
Regarding “MAEVKKKIKPGAIEAHAEELAIVVHYEVQEVSTQSDGSQKVISKEPGEKKISVKSLSEKTNVPLLATEIIEKCKLIHPSKAGQVEELLYQLQSRGGGGGADAKAKPAAKPAAASPAKSAAAAPPPPSNVAQSPQKPGQPPSTPSKKPPAAAGAPAPMLNGKPAPKAQSRLDAEAEERADLQARRQAQAMQIFKMQQKQYEQAYMNKLDEYIEGLYEEEMPKKVRATGMIAQLFRNTENFEVLLSHETLMQTLSRVLREDGKRSIDLCTNIISVFFSVSNFTQFHGLIMQNQVGALTMDLIDLEIKRTEHRASEENISPAMVAQKALEASQGQVTLSEREKKLLALIQKQDRLLYIAFYMLLNLSEDIEVERKMKKKNIVVYLVKMLERSNVELLILATTFLKKLSIYKENKETMSSCKIVEKLMKFVPVLNDVLLMSVLRLLHNLSFDHSLRDDMVKHGLIPKAVELMMVPRFQPVVLGLLYHISMEDKYKSLFTFTDCLNKMYDMLMRVQADLRNTPELIALAVNLTQNPRNAETMCEGDRFDKMMRRAFQTCDELMFKVLRNLSQQEGINIKRRFGPYVEQLVTLLRAPDITAELFVEVLGCLANLYIPEFDFLGLVRKHDLLTFLATYAQPGAVDDDILLEVVMFVGVLCNEGTAPLIVSSGLVTTLFQLMGDKKEDDEFVLQIAFTFHKFLLHDETRASLLTNTQQVVFYLVDLLQDKNKEVRRVADQCLDIIMDTDEEWAVQIRNLKFESFNQEWLDVVSQPAGGMAAHAGRQRNGYDDETEVDYSGGDGYYNIGDQRLVADFDDLGTNGGTWGPGDEGLQGGYEGNYDGYDEEELRQGYAM”, the “soluble on expression in E. coli” value was “not soluble”.
With “MVKCMKPGKAVILLQGRYTGKKAVIVKSFDDGTVEKKYGHCLVAGLKKYPSKVIRKDSAKKTAKKSRVKCFFKVINYQHVMPTRYTLDLDLKNVVSADAISSKDKKVTALKEAKAKFEERFKTGKNRWFFTKLRF”, the “soluble on expression in E. coli” value is recorded as “not soluble”.
For the sequence “MSLSIKLIAVDMDGTFLSDQKTYNRERFMAQYQQMKAQGIRFVVASGNQYYQLISFFPEIANEIAFVAENGGWVVSEGKDVFNGELSKDAFATVVEHLLTRPEVEIIACGKNSAYTLKKYDDAMKTVAEMYYHRLEYVDNFDNLEDIFFKFGLNLSDELIPQVQKALHEAIGDIMVPVHTGNGSIDLIIPGVHKANGLRQLQKLWGIDDSEVVVFGDGGNDIEMLRQAGFSFAMENAGSAVVAAAKYRAGSNNREGVLDVIDKVLKHEAPFKEGHHHHHH”, the “soluble on expression in E. coli” value was “soluble”.
Regarding “MSLKIKSIKAITLSMPFSHGGKKVIFHGKEWKSLEFNLVKVETDKGIIGWGEAFGYTSWKAVKIAIEDMVAPLLVGKDMTNIPELILILQKSLHLFGRYGITMFAISGVEIALWDALGKEKNKPIHELLGKKNKDLFKAYSSLFRYGDPKIVEQKCKQSLDDGYQAIKLHEIENNCIEAGRKGTGNLPLMLDTNCPWTYEETLAKKNFLQEMRLTWLEEPIYPPEDYQTLAKLKKELDIPIACGENACTEFEFKSIIDQNAVTYVQPSVIKVGGIYEMFKIIQHAEKNNILVMPHTAYFGPGFLATLQLASLMKNETYIERFYLDIDQEFYPNFKRALNGKYKLPSGPGLGIDLDYKKLSKYEIEGHHHHHH”, the “soluble on expression in E. coli” value was “soluble”.
As for “MGSDKIHHHHHHMTKNKLNQNSYELEKVKERIEQILSQFFPEQIMKDLPLYGKMLRVRLSILSFKNRGVEIGEDAISSLAALELVHLASLLHDDVIDGARFRRGKETINFMYGDKAAVAAGDLVLVSAFHTVEEIGNNKLRRAFLNVIGKMSEAELIEQLSRYKPITKEEYLRIVEGKSGALFGLALQLPALLEGELGEDLYNLGVTIGTIYQMFDDIMDFAGMEKIGKDGFLDLKNGVASFPLVTAMEKFPEARQMFENRDWSGLMSFMREKGILKECEETLKVLVKNVIIENSWLRDFVDGIFKIKISS”, the “soluble on expression in E. coli” value is reported as “not soluble”.

For the origin of these results see the DeepSol protein solubility set.
